Results: patent US20200407722, “DNA APTAMER […] BINDING TO TB7.7, AND USE […]” (MD APTUS INC., published 2020)

How the values were obtained:
[1] = target: T1, TB7.7 (Mycobacterium tuberculosis H37Rv, UniProt P9WJ11 P9WJ11:1-81); assay: fluorescence of Cy3-aptamer bound to TB7.7 magnetic beads; 20 mM Tris, 50 mM NaCl, 5 mM KCl, 5 mM MgCl2, pH 8.0; conditions: tags: His6-tag, pET32a vector, expressed in E. coli BL21(DE3); label: Cy3
T1 sequence: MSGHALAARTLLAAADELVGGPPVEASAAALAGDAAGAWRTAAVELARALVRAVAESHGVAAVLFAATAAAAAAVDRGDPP
Procedure: 16 μg of TB7.7 was mixed with 10 μL of magnetic beads, and then incubated in 100 μL of a binding buffer (20 mM Tris, 50 mM NaCl, 5 mM KCl, 5 mM MgCl₂, pH 8.0) for 1 hour. To separate unbound TB7.7, washing was performed twice with a binding buffer. Subsequently, the resulting mixture was incubated together with various concentrations of a Cy3-labeled aptamer for an hour, and an unbound aptamer was removed by washing. The amount of Cy3-labeled ssDNA aptamer bound to the magnetic beads with TB7.7 immobilized thereon was measured by fluorescence measurement (1420 Victor Multilabel counter, PerkinElmer, USA) by separating only Cy3-labeled ssDNA bound to TB7.7.

[2] = target: CFP10 (Mycobacterium tuberculosis, UniProt P9WNK5 P9WNK5:2-100); assay: impedance biosensor, 10 pM protein in PBS; aptamer taken as TG4
Source text: (§1) At this time, each protein was mixed at a concentration of 10 pM with PBS and used for detection.

[3] = target: ESAT6 (Mycobacterium tuberculosis, UniProt P9WNK7 P9WNK7:2-95); assay: as above
Source text: as §1

B1: TG6 (ssDNA)
DNA: CACCTAATACGACTCACTATAGCGGATCCGACACGAAGGATACTCAGTAGTACCCAGGTTGGTAGGGTAGCCTGGCTCGAACAAGCTTGC
In the case of B1, the Kd [1] is reported as 34.3 nM.

B2: TG5 (ssDNA)
DNA: CACCTAATACGACTCACTATAGCGGATCAGAATTTCTGTAATTAAGCGATAAATTGCTTAATAGGCACTCTCTGGCTCGAACAAGCTTGC
With B2 the Kd [1] was 106 nM.

B3: TG4 (ssDNA)
DNA: CACCTAATACGACTCACTATAGCGGATCCGAAAGTTGTTAGTAGACTTAGGGGAGGGTTAAAGTGGGGTGGCTGGCTCGAACAAGCTTGC
In the case of B3, the Kd [1] is reported as 37.5 nM.

B4: TG4 immobilized on gold electrode (ssDNA)
DNA: B3 DNA
B4: no binding [2]; no binding [3].
